According to US10919943B2, “Mutant proteins enabling agrochemical control of plant gene expression” (The Regents of the University of California, priority 2016, dated 2021):

B1: PYR1*^-MANDI: PYR1 mutant with 9 mutations, most sensitive to mandipropamid (protein, listed as Arabidopsis thaliana)
chain: MPSELTPEERSELKNSIAEFHTYQLDPGSCSSLHAQRIHAPPELVWSIVRRFDKPQTHRHFIKSCSVEQNFEMRVGCTRDIIVISGLPANTSTERLDILDDERRVTGASIIGGEHRLTNYKGVTTVHRFEKENRIWTVVLESYVVDMPEGNSEDDTRIVVDDVVKLNLQKLATVAEAMARNSGDGSGSQVT
B2: HAB1*: catalytically inactive orthogonal pentuple HAB1 mutant (protein, listed as Arabidopsis thaliana)
chain: MTPAVAMTLSLAANTMCESSPVEITQLKNVTDAADLLSDSENQSFCNGGTECTMEDVSELEEVGEQDLLKTLSDTRSGSSNVFDEDDVLSVVEDNSAVISEGLLVVDAGSELSLSNTAMEIDNGRVLATAIIVGESSIEQVPTAEVLIAGVNQDTNTSEVVIRLPDENSNHLVKGRSVYELDCIPLWGTVSIQGNASEMEAAFAVSPHFLKLPIKMLMGDHEGMSPSLTHLTGHFFGVYDGHGGHKVADYCRDRLHFALAEEIERIKDELCKRNTGEGRQVQWDKVFTSCFLTVDGEIEGKIGRAVVGSSDKVLEAVADETVGSTAVVALVCSSHIVVSNCGDSRAVLFRGKEAMPLSVDHKPDREDEYARIENAGGKVIQWQGARVFGRLAMSRSIGDRYLKPYVIPEPEVTFMPRSREDECLILASDGLWDVMNNQEVCEIARRRILMWHKKNGAPPLAERGKGIDPACQAAADYLSMLALQKGSKDNISIIVIDLKAQAKFKTRT

What was measured:
wild type HAB1 [1] = target: T1, wild type HAB1 (Arabidopsis thaliana, UniProt O49686+Q9CAJ0, A160V/F108A/F159V/K59R/M158I/S122G/T162D/V81I/Y58H); assay: Yeast two hybrid, mandipropamid-promoted interaction of PYR1 variants with wild type HAB1; assay type: cell-based
T1 construct: expressed in transfected cells
T1 sequence (Q9CAJ0 4-511): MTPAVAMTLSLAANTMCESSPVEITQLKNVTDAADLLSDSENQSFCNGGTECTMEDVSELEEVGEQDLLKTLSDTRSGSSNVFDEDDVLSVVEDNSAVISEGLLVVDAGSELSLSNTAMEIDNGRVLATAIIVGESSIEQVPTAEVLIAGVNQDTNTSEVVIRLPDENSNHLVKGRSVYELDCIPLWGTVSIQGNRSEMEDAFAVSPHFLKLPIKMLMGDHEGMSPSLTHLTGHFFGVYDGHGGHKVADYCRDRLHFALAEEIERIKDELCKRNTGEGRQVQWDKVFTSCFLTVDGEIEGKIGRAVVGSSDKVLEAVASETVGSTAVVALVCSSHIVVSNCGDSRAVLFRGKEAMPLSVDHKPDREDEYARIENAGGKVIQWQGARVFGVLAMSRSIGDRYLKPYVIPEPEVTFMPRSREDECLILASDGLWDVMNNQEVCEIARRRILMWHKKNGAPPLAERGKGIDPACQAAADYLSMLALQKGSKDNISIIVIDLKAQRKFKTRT
T1 sequence (O49686 1-191 Y58H/K59R/V81I/F108A/S122G/M158I/F159V/A160V/T162D): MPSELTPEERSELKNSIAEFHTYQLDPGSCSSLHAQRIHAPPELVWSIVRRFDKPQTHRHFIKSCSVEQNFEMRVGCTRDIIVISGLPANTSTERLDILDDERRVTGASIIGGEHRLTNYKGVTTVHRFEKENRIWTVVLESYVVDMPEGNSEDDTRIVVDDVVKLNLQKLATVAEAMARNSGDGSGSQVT
Description: To engineer orthogonal mandipropamid responsiveness, we introduced the PYR1^! mutation into the PYR1^MANDI receptor to create a septuple mutant called PYR1^!-MANDI (PYR1^Y58H;K59R;V81I;F108A;S122G;F159L;T162D). This mutant interacts with HAB1^! and HAB^!-2 in response to low μM mandipropamid in yeast two-hybrid assays, but is ˜100-fold less sensitive than the PYR1^MANDI/HAB1 interaction, which responds to concentrations in the low nM range (FIG. 3).
To improve sensitivity, we mutagenized ligand contacting and interface residues in PYR1^!-MANDI using NNK primers, pooled the mutant libraries, and used the mutagenized receptors in selection experiments using to identify enhancer mutations. The NNK mutagenesis screen targeted the following residues: P55, H60, F61, I62, K63, V83, S85, G86, L87, P88, A89, S92, E94, I110, H115, R116, L117, Y120, E141, P148, G150, N151, D154, D155, T156, M158, A160, V163, V164, L166, N167, and K170. […] Since M158 and A160 flank the F159V mutation present in PYR1^MANDI, we inferred that the closely located orthogonalizing T162D mutation in PYR1^!-MANDI may have reduced mandipropamid sensitivity by altering the local structure of the C-terminal α3-helix, which participates in ligand-induced conformational changes needed for PP2C binding (Nishimura et al., 2009). […]

wild type HAB1 [2] = target: T2, wild type HAB1 (Arabidopsis thaliana, UniProt O49686+Q9CAJ0, A160V/F108A/F159V/K59R/M158I/S122G/T162D/V81I/Y58H); assay: In vitro pull down assay with recombinant 6×-His receptor and GST-PP2C; assay type: binding; conditions: 10 μM mandipropamid; FIG. 8
T2 construct: made in house; host or cells: E. coli BL21 [DE3]pLysS
Description: (§1) To characterize the orthogonal orthogonal module biochemically, we produced recombinant forms of 6×-His-PYR1*^-MANDI, 6×-His-PYR1, GST-HAB1*, and GST-HAB1 in E. coli, as described above, and tested wild type and orthogonal receptors for their ability to inhibit GST-HAB1 activity in vitro, as well as their physical interactions with one another using pull-down assays. To characterize PYR1*^-MANDI and HAB1* in vitro, we cloned PYR1*^-MANDI into pET28 to generate a 6×-His tagged receptor and cloned HAB1* into pGEX-4T-1 to create a GST-fusion protein. Recombinant 6×-His-PYR1*^-MANDI and GST-HAB1* were prepared, as described above in example 1C, and used in experiments with previously prepared 6×-His-PYR1 and GST-HAB1. To conduct pull down assays, the specified recombinant receptor and PP2C (20 and 140 μg respectively), were combined in 500 μl PP2C assay buffer (100 mM Tris-HCl (pH 7.9), 100 mM NaCl, 1 mM MnCl2, 1% 13-ME and 0.3% BSA) containing either 10 μM ABA, 10 μM mandipropamid or 1% DMSO carrier solvent as a negative control. The final protein concentrations in the reactions are 1.6 μM receptor and 3.4 μM PP2C. The reactions were incubated for 90 minutes at room temperature (RT) and 20 μl of PrepEase (USB) His-tagged protein purification resin (20 mg) was added. The resin and reaction mixtures were incubated for 30 minutes at RT with gentle shaking at 5 minute intervals. The resin was washed five times and 100 μl of SDS-PAGE buffer was added and boiled for 5 minutes. After centrifugation 20 μl of supernatant was analyzed by SDS-PAGE.

wild type PYR1 = target: T3, wild type PYR1 (Arabidopsis thaliana, UniProt O49686); assay: as above; assay type: binding; conditions: FIG. 8
T3 construct: made in house; host or cells: E. coli BL21 [DE3]pLysS
T3 sequence (O49686 1-191): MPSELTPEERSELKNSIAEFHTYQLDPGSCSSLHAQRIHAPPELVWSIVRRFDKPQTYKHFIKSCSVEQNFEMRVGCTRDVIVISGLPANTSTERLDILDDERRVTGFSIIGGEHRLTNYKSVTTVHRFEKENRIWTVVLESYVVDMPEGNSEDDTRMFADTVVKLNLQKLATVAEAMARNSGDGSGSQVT
Description: as §1

Molecule	fold less sensitivity to mandipropamid than the orthogonal interaction (wild type HAB1 [1]; FIG. 6) [fold]	interaction with wild type HAB1 (wild type HAB1 [1]; yeast two hybrid)	binding to wild type HAB1 (wild type HAB1 [2])	binding to wild type PYR1 (wild type PYR1; 10 μM ABA)	binding to wild type PYR1 (wild type PYR1; 10 μM mandipropamid)
B1	~10	weakly interacts	can bind	–	–
B2	–	–	–	does not bind	does not bind
